The data set can be described thus: soluble on expression in E. coli; label from the status in PepcDB or PDB records.
On to “MSKYWSNIVKKISPYVPGEQPKDKKYIKLNTNENPYPPSEKVLKAISAAVNESLRLYPDPACESLRNTLAKYYGIKASEVFVGNGSDELLAFSFMAFFNPGDTIIFPDITYSFYEVYSSMFSVNYRLIPLDDEFNVPVEEFFTENDGIILANPNAPTGKALPLQSIRKILEKNDDKVVIIDEAYVDFGARSSVPLIKEFENLLVIQTLSKSRALAGLRVGFALGSEQLIEGLDRVKNSINSYTLDRLALIGAEEAIKDHEYFCEIRDKIINTREWVSKKLSSMGFKVIESKANFIFISHPKINGRLLFEKYKENNILVRHFNSPRIDNFLRVSIGSDEEMNIFCEKTKEIIESLN”, for which the “soluble on expression in E. coli” value is “soluble”. Turning to “MNNQTMTFTPEQLRKHAQEMLRHAEQLEKTGITKDAIRKDMVPALRELMQAKHRAQKAVDELVDCVAELETRVGKFEKLVQEALR”, the “soluble on expression in E. coli” value was “not soluble”. “KFWRRWAGQSQYKGRWREMVTRSALALKLLTSRKHGGIVAAATFGLPETEAGERNWDYRYTWIRDASFTVYAFMRLGYTDEANAFMGWVRGRLDDCCEQTEKLGILYALDGHAELPEEHLDHLTGYGGAQPVRIGNEAYKQVQLDIYGELMDAVYLANKYGDAISHDGWQHVVRQVDYVCEHWNDRDVGIWEMRGGDQHFLHSRLMCWVALDRALRLAFKRSLSGPFERWNKVREDIQNDIWDNFWNEELGHFVQYKGSRNLDASMLLMPLVRFVGANDPKWLATLDAIEAALVRDGMVFRYRNDDDHDDGLAGEEGAFVACSFWYVECLARAGRVEQAHLEFEQLLRYANPLGLYAEEFDGHARHLGNTPQALSHLALISAASFLDRKLSGEQALWQP”: the “soluble on expression in E. coli” value is “not soluble”. To “MSIKIKNAVEIEKMRVAGRLAAEVLEMIEPHVKAGVTTEELDQICHKYITEVQGAIPAPLNYHGFPKSICTSINHIVCHGIPASEDTYFGQIQRPAVLRDGDILNIDITVIKDGYHGDTSKMFLIGDVSIEDKRLCHVAQECLYLALKQVKPGVQLGEIGTTIEKHIKTNNKNNPRFKFSIVRDYCGHGIGAEFHEEPQVVHYKNSDRTVLREGMIFTIEPMINAGKFGCRLDDEDSWTVYTADGKKSAQWEHTILVTATGCEILTLRSEESLPRILNNA” belongs “not soluble”. To “MGSDKIHHHHHHMTKHLYIDEYGSFVGKTSERLTVSQGGELKAEIPLSRLKSVNILKGGISLSSDIIEACSLRGIKIFFLDFRNVAHTAITSTANHAVANVRKAQFLTIESNHGREIARTLIVGKLKNQRATLQYFYKYLKNTDKQSKKLESAIEKIKETIESLKNIELSNNKHWSQIIMGKEGGMAAIYFDAIGAELLEECDFTTRIGRGAEDIMNSALNYGYAILTSFVWQSIINAGLEAYAGVLHTNRPGKPSLVLDVMEEYRAWVVDRNIIKLRSSLAGKKELDAELKKKIITEINATMNKKHLYNGKNLSLQGVMQRQVYRLVGAFMQQNRYKSYIFKW” belongs “not soluble”; to “MMSIFSVQTGSLVGTVHRYVKQPRQSWAYPIKQKSQTGTDNTKSALTLEKFTKPLTRKFSHDTICRKAPFVGVELQKPSATLTIMGKVHRQRQE”, “not soluble”; to “MQVLSMIFTREILEEAINYGLTKNTTSFTRIKAGIYKTEREKHRDLPSHYIYTACEDASERLDSFNKLKKRGRSYTDRPSVRRVTVHLDDHLWKFSLNVISIATKRGRVCISPIFPKIFWRYYNDNWLIASGARFKLLKGNVVEFFIVFKKDVKSYDPRGFIPVDLNEDSVSVLINGKPILLETNTRMITLGYEYKRRSITNGRSTKDREVRRKLRERDKKLDVRRKFAKLIVKEAFGSRSAIVLEDLPRGVPEHMVKGVKDKQLRLRIYRSAFSSMKNAIVEKAREFGVPVILVDPSYTSSICPVHGSKIIYQPDGGSAPRVGVCGKGGERWHRDVVALYNLRKRAGDVSPVPLGSKESHDPPVVQVVEGLEHHHHHH”, “soluble”. To “MDYEIRQEQKRKIAGFHMVGPWEHTVKQGFEQLMTWVDRQRIVPVEWIAVYYDNPDVVPAEKLRCDTVVSVAENFILPDNSEGVIVTAIEGGEYATAVARVEDRDFAKPWERFFDVLEQDSAYQIASAPCFETYLNNGMEDGYWDIEMYIPVQRK” belongs “not soluble”; to “MDVQKKAQMVIEEVKKAIVGKDNVLKLVLATILADGHILIEDLPGLAKTLMAKSFAKALGLEFKRVQFTPDLLPSDILGVNVFNQKTLEFEFKKGPVFTNILLADEINRAPPKTQSALLEAMQERQVTIEGVTYKLPKPFIVIATQNPIEQEGTYPLPEAQLDRFLVRLRMGYPSKDEEKEILRRRIERKQDEVEIETVLSPKDVLKMQREVEDVYVSDAIIEYITSLVWATREDKRDIEIGVSPRGSLALLKLSRAYAAIEGRDYVIPDDVKAVAIPALSHRIILKRELWYTRVSQESVIEKILERVPVPKFE”, “soluble”; to “MSEQKRRTIQIAISEDHYEELQKALELLKGTQLPFSTTVEQFVELILSNYVATSNKISSLAKSGFDVASLQQELEKIGNLSGVDDNLKGFLSELLKTSRNGFSNPNKDGKKNDDDNNSSSKS”, “soluble”. Consider “MAIGSKIIKPGGSDPDDFEKSIAQALVELEANSDLKPYLRDLHITRAREIEFGSKKAVIIYVPIPQQKVFQKIQIILVRELEKKFSGKHVVVIAERKILPKPTRKARNPLKQKRPRSRTLTAVYDAILEDLVFPAEIVGKRIRVKLDGSQLVKVHLDKNQQTTIEHKVDTFTSVYKKLTGRDVTFEFPDNYLNV”, for which the “soluble on expression in E. coli” value is given as “not soluble”. To “MKTEEMKFINESEFKKLKHYFEQKNTTSSLVLLVALTTGGRFSEIAKLKREDLDIKNNKIHLRGTKTETSDRIISIDTVTMKRIQSFIDSRPTNISGYIFTVDGKTITNAAVNKVLRKACANLNIKEITIHSLRHSFCSILIHHGFSILYISKHLGHSNPATTQSIYSHLLQETYEREDELEHHHHHH” belongs “not soluble”; to “MGLERFNGVRVDDAERALLTCCRSLRWARRVADHRPYPDLDALLAAADEAAYDLAPADLAEALAGESLTLLPDDAYSVAHTALSAAHAAYESRFGHVFVICLDNAPPGEALDQVLAGIRSRLTNDREEERVLAAEELRRLARGRLARLVRDFSPRPALQRTPLEHHHHHH”, “not soluble”; to “MGSDKIHHHHHHMELVYKITYHRIQAHYLPKLVQAVQFVSEENLWKQGESVNSIGGIVLHICEHMQRNTSRYKNPNIVFEKGIEEYFPTKRQHTEVLLQYVEKVFDEWGKAYIQAWEEKRHIELHSLLHLVEHTSYHLGQIVDRTKLIKGQQFNFCQNGINEKNLRTRVETSKF”, “not soluble”. Turning to “MIYKACIRKRCGGVCVGEELKPEKIQEIRLGDCPICGGKGTLKAIQFIHRIPYFGEVMESTVVCERCGYRNSDVIILEEREPRLYEVKVEEEKDLFIRVVRSKSGTIELEELGIKIEPGPAAEGFVSNIEGVLERAKEVLLMARDFKEQENDREAVRRIDELLKYIEEVKEGKKPLTVRIMDPFGNSALIGEKVKSRKLTKEEIRKLSKGPYIVIEPDEVPQQLEHHHHHH”, the “soluble on expression in E. coli” value is recorded as “not soluble”. Turning to “MSLKRVMTLADIALLANVSKSTASRALRNNPLINKNTRELVQEIALKHNFKVNATASNLRTQKTNTIAVVVMFDQKSGQAISDPFLMEILGTIADELTHFGYDMLLTTTKTATHDWYSYYYESKRADGLIIIGQGEHDQRIEALISTDLPFIVWGTEIHEKNYTTVGSDNRKGGYLAVSHLIEQGCQRIAFLGDINHTEVEQRWLGYQDAVAEAGLVVEDKLQIKTDFTSVDGYQSLRDHCLNDDVPIDGVFAVSDAIALGATKYLFEQNITIPKQVAVIGFDDISMSEYCSPSLSTIRQNTAAGGRLLVKLMLDKLNHLPVDSQLLNVEMIQRQSSEGHHHHHH”, the “soluble on expression in E. coli” value is “soluble”. On to “SARGRKMSKPRAVEAAAAAAAVAATAPGPEMVERRGPGRPRTDGENVFTGQSKIYSYMSPNKCSGMRFPLQEENSVTHHEVKCQGKPLAGIYRKREEKRNAGNAVRSAMKSEEQKIKDARKGPLVPFPNQKSEAAEPPKTPPSSCDSTNAAIAKQALKKPIKGKQAPRKKAQGKTQQNRKLTDFYPVRRSSRKSKAELQSEERKRIDELIESGKEEGMKIDLIDGKGRGVIATKQFSRGDFVVEYHGDLIEITDAKKREALYAQDPSTGCYMYYFQYLSKTYCVDATRETNRLGRLINHSKCGNCQTKLHDIDGVRHLILIASRDIAAGEELLYDYGDRSKASIEAHPWLKH”, for which the “soluble on expression in E. coli” value was “not soluble”.

In the case of “EAEEDGDLQCLCVKTTSQVRPRHITSLEVIKAGPHCPTAQLIATLKNGRKICLDLQAPLYKKIIKKLLES”, the “soluble on expression in E. coli” value is reported as “soluble”.

Take “MVRLEDYGTWDEALKRLEASRKALLALLREADPAWLSAPLREGAWTPLMVAEHVALVEDSTARVLRRLRRLAAGENLPPVPVKPGEFKDGKPQAPEGVRPKGGLSLEEVLALLDRARAFLLEEVAKADPQNPATFPHPFFGELNPLGWLRAAAYHEAHHLKALQASLPR”: the “soluble on expression in E. coli” value is on record as “soluble”. For the sequence “MSLSKTYHFIGIKGSGMSALALMLHQMGHKVQGSDVEKYYFTQRGLEQAGITILPFDEKNLDGDMEIIAGNAFRPDNNVEIAYADQNGISYKRYHEFLGSFMRDFVSMGVAGAHGKTSTTGMLSHVLSHITDTSFLIGDGTGRGSANAKYFVFESDEYERHFMPYHPEYSIITNIDFDHPDYFTSLEDVFNAFNDYAKQITKGLFVYGEDAELRKITSDAPIYYYGFEAEGNDFVASDLLRSTTGSTFTVHFRGQNLGQFHIPTFGRHNIMNATAVIGLLYTAGFDLNLVREHLKTFAGVKRRFTEKIVNDTVIIDDFAHHPTEIIATLDAARQKYPSKEIVAVFQPHTFTRTIALLDDFAHALNQADAVYLAQIYGSAREVDHGDVKVEDLANKINKKHQVITVENVSPLLDHDNAVYVFMGAGDIQTYEYSFERLLSNLTSNVQEGHHHHHH”, the “soluble on expression in E. coli” value is given as “soluble”.

In the case of “SAVERVEILRDGAAAQYGSDAIAGVVNIILKAKSTGGGIAYQYGGYTQGDGDQQKILGWKSFALPNDGSVTVAFDAGKRDAANNTLPDSRKFYNSSSSTNAQYNDQNTPYRTWRFGSPEIKDQINLSYNADLPLADDTSLYSFGTYGHRKTIGEGFYEPSTATAAVNQSIYYKERYPDGRIPLSIVTVDDFALTAGAKKGDQKTGKLDGFVTYGRNKVHTDQDNGINPSYGSGSPSSYSLGDNIFSQLNTGLDYSLDANTSWFYHPITVSTGILYRWEQYQQVAGDPVAYTRGPYYNVTTAPEIYSGITDADQRKIDRNVYGAYLDLETEIVKDLNVGVALRSEKYSDFGNTTNGKLTLKYDFDPKLNLRGSASTGYRAPS”, the “soluble on expression in E. coli” value is listed as “not soluble”. “MGSDKIHHHHHHMRELPPLDLYETEAAERAGMAAGEPSAGDVELPAEPLLAGEARGQPFTRQSVAPLATIDLSTVPADDVTPRRWIVPDLIPDRNVTDISGDGGLGKSLLALQLGIAMAAGRDWLGTMPEPGGFLYVSCEDEPNEVLRRRNAVLAGMGLTPGDIRNLYLADLTDAEGTELAAPGKAALELTALHHRFEVTIRQLRPKCAVLDTRADVFGGNELSRVQVRMFVRSLRRLCIAHDMAIILLSHPSVSGMASGSGQSGSTGWGNSVRSRLYLTAPKSEGDTDLDPDIRILSSKKANYGPHGAEIVLRWDRGMFRPDRDALASLDRDQQDREIEVTFLQLLSKREKEGRRANASSGPNYAPKVLAEMNGTISRAKFRGAMERLFAKEEIASVSYEANGKGSTQLVLTDKGMSRLRIPF”: the “soluble on expression in E. coli” value is reported as “not soluble”.

The record behind these values is the DeepSol protein solubility set.
